What was measured:
[1] = target: T1, human recombinant soluble ACE2 (human, UniProt Q9BYF1 18-740); assay: ELISA screen
T1 construct: also called hrsACE2

[2] = target: T2, full-length trimeric SARS-CoV-2 Spike protein (Spike-H6) (SARS-CoV-2, N-glycosylated (22 N-glycosylation sites)); assay: ELISA screen
T2 construct: also called trimeric Spike; full-length Spike-H6

[3] = target: T3, monomeric SARS-CoV-2 receptor binding domain (RBD-H6) (SARS-CoV-2, UniProt P0DTC2 319-541); assay: ELISA screen
T3 construct: Made in HEK293-6E cells; also called RBD Spike; monomeric RBD

[4] = target: T1, human recombinant soluble ACE2; assay: ELISA

Binder	Mean normalized OD [1] [OD]	Mean normalized OD [2] [OD]	Mean normalized OD [3] [OD]	binding result [4]
Acan CRD-mouse IgG2a-Fc fusion protein (Fc fusion) not shown	0.081	0.023	0.035	no binding (tested: 10 µg/ml)
Atrn CRD-mouse IgG2a-Fc fusion protein (Fc fusion) VGNSCLKITTAKENYDNAKLSCRNHNAFLASLTSQKKVEFVLKQLRLMQSSQSMSKLTLTPWVGLRKINVSYWCWEDMSPFTNSLLQWMPSEPSDAGFCGILSEPSTRGLKAATCINPLNGSVCEGGGSGGGSGGGS	0.002	0.002	0.001	no binding (tested: 10 µg/ml)
Clec2l CRD-mouse IgG2a-Fc fusion protein (Fc fusion) YGRKCYYFSEEPRDWNTGRQYCHTHEAALAVIQSQKELEFMFKFTRREPWIGLRRVGDDFHWVNGDPFDPDTFTISGMGECVFVEPTRLVSTECLTTRPWVCSGGGSGGGSGGGS	0	-0.001	0	no binding (tested: 10 µg/ml)
Clec3a CRD-mouse IgG2a-Fc fusion protein (Fc fusion) VHKKCYLASEGLKHYHEANEDCISKGGTLVVPRNSDEINALRDYGKRSLPGVNDFWLGINDMVTEGKFLDVHGFAVSFLNWDRAQPSGGKRENCVLFSQSAQGKWSDEACRSSKRYICEGGGSGGGSGGGS	0.045	0.098	0.039	no binding (tested: 10 µg/ml)
Clec3b CRD-mouse IgG2a-Fc fusion protein (Fc fusion) VNLKCLLAFTQPKTFHEASEDCISQGGTLGTPQSELENEALFEYARHSVGNDANIWLGLNDMAAEGAWVDMTGGLLAYKNWETEITTQPDGGKAENCAALSGAANGKWFDKRCRDQLPYICQGGGSGGGSGGGS	0.001	0.001	0	no binding (tested: 10 µg/ml)
Clec4e CRD-mouse IgG2a-Fc fusion protein (Fc fusion) YQSSCYFFSTTTLTWSSSLKNCSDMGAHLVVIDTQEEQEFLFRTKPKRKEFYIGLTDQVVEGQWQWVDDTPFTESLSFWDAGEPNNIVLVEDCATIRDSSNSRKNWNDIPCFYSMPWICEGGGSGGGSGGGS	0.222	0.037	0.022	no binding (tested: 10 µg/ml)
Clec9a CRD-mouse IgG2a-Fc fusion protein (Fc fusion) NGKSCYYVFERWEMWNISKKSCLKEGASLFQIDSKEEMEFISSIGKLKGGNKYWVGVFQDGISGSWFWEDGSSPLSDLLPAERQRSAGQICGYLKDSTLISDKCDSWKYFICEGGGSGGGSGGGS	0.222	0.029	0.062	no binding (tested: 10 µg/ml)
Colec10 CRD-mouse IgG2a-Fc fusion protein (Fc fusion) TEEKFYYIVQEEKNYRESLTHCRIRGGMLAMPKDEVVNTLIADYVAKSGFFRVFIGVNDLEREGQYVFTDNTPLQNYSNWKEEEPSDPSGHEDCVEMLSSGRWNDTECHLTMYFVCEGGGSGGGSGGGS	0.185	0.036	0.008	no binding (tested: 10 µg/ml)
Colec11 CRD-mouse IgG2a-Fc fusion protein (Fc fusion) TESKIYLLVKEEKRYADAQLSCQARGGTLSMPKDEAANGLMASYLAQAGLARVFIGINDLEKEGAFVYSDRSPMQTFNKWRSGEPNNAYDEEDCVEMVASGGWNDVACHITMYFMCEGGGSGGGSGGGS	0.153	0.043	0.013	no binding (tested: 10 µg/ml)
Dgcr2 CRD-mouse IgG2a-Fc fusion protein (Fc fusion) CPSGWHHYEGTASCYRVYLSGENYWDAAQTCQRVNGSLATFSTDQELRFVLAQEWDQPERSFGWKDQRKLWVGYQYVITGRNHSLEGRWEVAFKGSPEVFLPPDPIFASAMSENDNVFCAQLQCFHFGGGSGGGSGGGS	0.012	0.005	0.003	no binding (tested: 10 µg/ml)
Frem1 CRD-mouse IgG2a-Fc fusion protein (Fc fusion) HSGYCHILVTRQKGTWTTATRACREQHQGDLVTVLSRRHMQWLWAMSGRKPFWIGLKNQPRTGHWEWIGGEPVAFTNWRRGAPLHPKPGKNCALVQKRGQWQTKNCSKGKAHNFVGGGSGGGSGGGS	0.028	0.03	0.013	no binding (tested: 10 µg/ml)
Grifin CRD-mouse IgG2a-Fc fusion protein (Fc fusion) FEAFCAGGLAPGWSLTVQGHADAGEEKFEINFLTDAGDIAFHVKPRFSSATVVGNAFQGGRWGQEEVSSIFPLTLGEPFEMEVSADAEHFHIYAQEQKVLQFPHRHRPLATITRVRVLSEHRLAQVELAGGGSGGGSGGGS	0.035	0.004	0	no binding (tested: 10 µg/ml)
Klrb1 CRD-mouse IgG2a-Fc fusion protein (Fc fusion) HCDKCLFTSQTSRPWADGLVDCNLKGATLLLIQDEEELRLLQNFSKGKGQQFYIGLKYEEVDKVWKWMNGSILNTNLLQITGKDEENSCALISQTEVFSDSCSSDNHWICQGGGSGGGSGGGS	0.012	0.002	0.005	no binding (tested: 10 µg/ml)
Klrb1a CRD-mouse IgG2a-Fc fusion protein (Fc fusion) ECPQDWLSHRDKCFHVSHVSNTWEEGLVDCDGKGATLMLIQDQEELRFLLDSIKEKYNSFWIGLRYTLPDMNWKWINGSTLNSDVLKITDDTENDSCAAISGDKVTFESCNSDNRWICQKGGGSGGGSGGGS	0	0	0.002	no binding (tested: 10 µg/ml)
Cd207 CRD-mouse IgG2a-Fc fusion protein (Fc fusion) FSGNFYYFSRTPKTWYSAEQFCISRKAHLTSVSSESEQKFLYKAADGIPHWIGLTKAGSEGDWYWVDQTSFNKEQSRRFWIPGEPNNAGNNEHCANIRVSALKCWNDGPCDNTFLFICKGGGSGGGSGGGS	0.123	0.028	0.118	no binding (tested: 10 µg/ml)
Klrd1 CRD-mouse IgG2a-Fc fusion protein (Fc fusion) HQCNCYFISKEEKSWKRSRDFCASQNSSLLQPQSRNELSFMNFSQTFFWIGMHYSEKRNAWLWEDGTVPSKDLFPEFSVIRPEHCIVYSPSKSVSAESCENKNRYICKGGGSGGGSGGGS	0.006	0.003	0.004	no binding (tested: 10 µg/ml)
Klri2 CRD-mouse IgG2a-Fc fusion protein (Fc fusion) FGNNFYCVFRENSKTWVESQSACEELNSHLVIIDSKAEVENLLLFEMDGWILHRMDGTNSSRLWGNDIKIRNTLMNDSEKKNHSCHYLRGNIFMPDECSAKKTYICEGGGSGGGSGGGS	0.005	0.006	0.001	no binding (tested: 10 µg/ml)
Lgals4_1 CRD-mouse IgG2a-Fc fusion protein (Fc fusion) YKRPIPGGLSVGMSVYIQGMAKENMRRFHVNFAVGQDDGADVAFHFNPRFDGWDKVVFNTMQSGQWGKEEKKKSMPFQKGKHFELVFMVMPEHYKVVVNGNSFYEYGHRLPVQMVTHLQVDGDLELQSINFLGGGSGGGSGGGS	0.2	0.152	–	no binding (tested: 10 µg/ml)
Olr1 CRD-mouse IgG2a-Fc fusion protein (Fc fusion) HKENCYLFHGPFSWEKNRQTCQSLGGQLLQINGADDLTFILQAISHTTSPFWIGLHRKKPGQPWLWENGTPLNFQFFKTRGVSLQLYSSGNCAYLQDGAVFAENCILIAFSICQGGGSGGGSGGGS	0.116	0.083	–	no binding (tested: 10 µg/ml)
Asgr1 CRD-mouse IgG2a-Fc fusion protein (Fc fusion) YEGSCYWFSSSVRPWTEADKYCQLENAHLVVVTSRDEQNFLQRHMGPLNTWIGLTDQNGPWKWVDGTDYETGFQNWRPEQPDNWYGHGLGGGEDCAHFTTDGRWNDDVCRRPYRWVCEGGGSGGGSGGGS	0.004	0.121	–	no binding (tested: 10 µg/ml)
Chodl CRD-mouse IgG2a-Fc fusion protein (Fc fusion) VKHPCYKMAYFHELSSRVSFQEARLACESEGGVLLSLENEAEQKLIESMLQNLTKPGTGISDGDFWIGLLRSGDGQTSGACPDLYQWSDGSSSQFRNWYTDEPSCGSEKCVVMYHQPTANPGLGGPYLYQWNDDRCNMKHNYICKGGGSGGGSGGGS	-0.001	0.002	0.001	–
Clec18a CRD-mouse IgG2a-Fc fusion protein (Fc fusion) IDGDCFMVSPEADTYYGAKMKCQGKGGVLAQIESQKVQDILAFYLGRLETTNEVTDSDFETKNFWIGLTYKAAKDSFRWTTGEHQSFTSFAFGQPDNQGFGNCVEMQASAAFNWNDQRCKTRNRYICQGGGSGGGSGGGS	-0.013	0.022	0	–
Clec1a CRD-mouse IgG2a-Fc fusion protein (Fc fusion) YGDKCYQFYKESKNWQSCEYFCLADNATMLKISTQEELDFAMPQSYSEFFYSYWTGLSRNGSGKAWLWTDGTPYSFELFEIIIDPTNLRNRDCMTIFNGKAYSKDCKELRRCACEGGGSGGGSGGGS	-0.006	-0.005	0.01	–
Clec2d CRD-mouse IgG2a-Fc fusion protein (Fc fusion) VENKCFYFSEYPSNWTFAQAFCMAQEAQLARFDNQDELNFLMRYKANFDSWIGLHRESSEHPWKWTDNTEYNNTIPIRGEERFAYLNNNGISSTRIYSLRMWICSKLNSYSLHCQTGGGSGGGSGGGS	-0.506	-0.106	0.024	–

— patent EP4039268A1 (IMBA-Institut für Molekulare Biotechnologie GmbH, dated 2022)
